Drawing on a protein production outcome set (Wang et al. 2014), this text covers protein production for 21 sequences.
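Note: failed if final PepcDB status was selected cloned or expressed and not failed if soluble or beyond.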

A short description of this series: label from the status in PepcDB records.
For the sequence “MLKGKVALVTGASRGIGRAIAKRLANDGALVAIHYGNRKEEAEETVYEIQSNGGSAFSIGANLESLHGVEALYSSLDNELQNRTGSTKFDILINNAGIGPGAFIEETTEQFFDRMVSVNAKAPFFIIQQALSRLRDNSRIINISSAATRISLPDFIAYSMTKGAINTMTFTLAKQLGARGITVNAILPGFVKTDMNAELLSDPMMKQYATTISAFNRLGEVEDIADTAAFLASPDSRWVTGQLIDVSGGSCL”, the protein production result is listed as “not failed”.
Under “MEEKQERYSISEKTYQEFIDHTRVLALEERGIVQCGIATCRDFFSVYRKNQKKHMLLYTVRGKGWLESGACRYELEPGSLVVVPAGIENGFGMEDETWQIAWVFLSQHKEWSMVGENISYQLTPAPEVMYSCIQTLLRSINLSIDYGSAVGAHSVAQLELMLNMPSSESVSRNQLKLRRVFDLVQRQLHKDWSVEQLAALYPCSEPHLHRLTQQQFGRSPMAHLMRMRMEYAARLLRSTEWPIQHIGEIVGYPTSANFSTRFKAWSSMTPREFRQNGRIERDPEK” stands “failed”.
Under “MSLITNAKLYPPRHPRAVHLAHHLAAIAPGVLVTAAIAAAAVGLRAIPGMPGISPMLLAILIGIVAHNGIGTPSWAVPGVKFSLRRVLRFAIILLGLQLTTAQLIEVGGEGLAIIAATLLATFCFTVWFGRVLGVDRKLTELIAAGTSICGASAIIATNTVTRADDEDVAYGVACVTVFGSLAMVSYPLLQSVLNLDAHGFGLWTGASIHEIAQAVAVSFQGGQRAGEFGTIAKLSRVMMLAPLVIGLGMLARVRAKHQPAGDHTATPPMPWFVLGFVAMIGVNEFVAIPHEAKSWIVAITAFLLSMALAAMGLETDLRKLAARGLRPALLGLTASLFIAGFSLALIKLTGWHG” stands “failed”; under “MMTKYGVVGTGYFGAELARFMSKVEGAKITAIYDPVNAAPIAKELNCVATATMEALCSHPDVDCVIIASPNYLHKAPVIAAAKAGKHVFCEKPIALNYQDCKDMVDACKEAGVTFMAGHVMNFFHGVRHAKALIKAGEIGEVTQVHTKRNGFEDVQDEISWKKIRAKSGGHLYHHIHELDCTLFIMDETPSLVSMAAGNVAHKGEKFGDEDDVVLITLEFESGRFATLQWGSSFHYPEHYVLIEGTTGAILIDMQNTAGYLIKAGKKTHFLVHESQAEDDDRRNGNISSEMDGAIAYGKPGKRTPMWLSSIMKLEMQYLHDVINGLEPGEEFAKLLTGEAATNAIATADAATLSSNEGRKVKLTEILGLEHHHHHH”, “not failed”; under “MNWSIPNILTVLRLLAAPGVAVMFLYFHRPWADWFALTLFILAAVTDFFDGYLARLWKQESKFGAMLDPIADKAMVVIALVIITGYSGMNPWLILPVTLILFREVFVSGLREFLGAKASLLKVTKLAKWKTTAQMVAIAILFLGTGLEHLEGIARQGMTWEQYARAVSAGEADPIRSCGMHGCSSYATWLGLALIWIAAALTFITGWDYFRKALPYLKDEK”, “not failed”.
Under “AIASEVSCKKRDDYLEWPEYFMAVAFLSAQRSKDPNSQVGACIVNSENKIVGIGYNGMPNGCSDDVLPWRRTAENKLDTKYPYVCHAELNAIMNKNLTDVKGCSMYVALFPCNECAKLIIQAGIKEVIFMSDKYHDSDEATAARLLFNMAGVTFRKFIPKCSKIVIDFDSINSRPSQKLQ” stands “failed”; under “MASWSLRTVPPKMGRVVNCQNHITAGGGRRTLMKIILTGATGFVGCSLVPLLHQQGHELTLLVRSVSKAQRLFAPGSFPQLKAIAYEATKSGDWQKVVDGQDAVINLAGEPISERWTEAYKAEIFDSRKLGTEKLVEAIAKADRKPQVMISGSAIGYYGTSETATFTESSKPGDDFLAEVCQAWENAAHQVEQLGVRLVVFRIGIVLGADGGALAKMLPPFKLFAGGPLGSGEQWFSWIDRRDLIALIDKALTDSTLRGTYNATAPNPVKMKEFCHTLGKVLARPSWLPVPDIALELLLGEGAKLVLEGQEVLPGAISKTDFQFQAPDLETSLRQILGS”, “failed”.
With “MEEKQILCVGLVVLDVISLVDKYPKEDSEIRCLSQRWQRGGNASNSCTILSLLGAPCAFMGSMAPGHVADFVLDDLRRYSVDLRYTVFQTTGSVPIATVIINEASGSRTILYYDRSLPDVSATDFEKVDLTQFKWIHIEGRNASEQVKMLQRIDAHNTRQPPEQKIRVSVEVEKPREELFQLFGYGDVVFVSKDVAKHLGFQSAEEALRGLYGRVRKGAVLVCAWAEEGADALGPDGKLLHSDAFPPPRVVDTLGAGDTFNASVIFSLSQGRSVQEALRFGCQVAGKKCGLQGFDGIV”, the protein production result is recorded as “failed”.
Under “MRNDTMLNDTPFQDDDSRWQAVVTRNKAADSCFIYAVKTTSIYCAPSCASRQPRRENVVFFATADEAQAAGFRPCKRCRQGMLSRQEQQAQQIARACRMIEQSDRPPTLAVLAQAVGMSAFHFHRVFKTTTGLTPKQYASAYRHRQLREHLADNGEVTAAIVAAGYDASGRFYAEAGTHLGMTPTAFQNRGKGMTIHFAIGRCSLGDVLVAESEKGICAILLGDDPEPLLNTLQEMFAHAHLVGGDAAFEQRMSQVVGFVDDPSIGLTLPLDIRGTAFQQRIWQALRAIPVGETLSYREVAERIGSPAAVRAVAGACAANRLAVAIPCHRVVRHDGALSGYRWGVERKRALLEKEQVEKKQIVHQPEESPP” stands “failed”.
Under “MANHVSLILPPLSLYIHIPWCVQKCPYCDFNSHTQKGTIPEAEYIQHLLADLSQDLVTYKTAIANRKIHSIFIGGGTPSLFSAEAIAYLLAEIKQRIAFAPKIEITLEANPGTAEAERFICYTEAGINRISMGIQSFEEEKLRKLGRIHDAHEAKQAVYFAKNALISPSRTVGLHSFNLDLMHGLPNQTLEQALADLNTAISLNPPHFSWYQLTIEPNTMFYYRQPTLPDDDELWAIFEQGHQLLTMAGYQQYETSAYAKQGFQCQHNLNYWRFGDYLAIGCGAHGKISYPSGEIYRFSKTKHPKGYMRGDYRDSQQSIQLDDRPFEFFMNRFRLLEPTPKQEFECYTGLDCERVRPTIDWALNKHYISETSTTWQVTQKGKLFLNELLAGFLTLEHHHHHH” stands “failed”; under “MPEIHQSIAQHYHERTKYDPETIASKSQRLDWAKQPVPFKEYKIGSAIDLKPYLQETPEVFVNDTNGQWWQRLSRLLFRSYGLTARMPSMGNTVYLRAAPSAGGLYPAEVYVVSRGTPLLSPGLYNYQCRTHSLIHYWESDVWQSLQEACFWHPALESTQLAIIVTAVFYRSAWRYEDRAYRRICLDTGHLLGNIELSAAITDYRPHLIGGFIDEAVNDLLYIDPLQEGAIAVLPLADLLDIQQNISPGCTALPSATETNYPQVPDGELLKYFHHHTQISASITGKLNLPTVIQEKSLEDKYNFPFCLKISTVSAPIYWGENLSDLEITMHKRRSTRAYNGEELTFDELKALLDFTYQPQNYIDQSLDNSPDYFDLNLIETFIAVCGVQGLEAGCYYYAPKAQELRQIRFKNFRRELHFLCLGQELGRDAAAVIFHTSDLKSAIAQYGDRVYRYLHMDAGHLGQRLNLAAIQLNLGVSGIGGFFDDQVNEVLGIPNDEAVIYITTLGRPR”, “not failed”.
Take “MAMPAHMTLTGEKQGKIDGSCELQGRENTIQLYEMKHDIHMPRNPHDGLPTGKRVHGPLSIVKMFDKSSPKLYQALCTGEHMKNVQIKWYRINKQGLEEHYFTTTLEDAIVVEMKPYMPMTLLPANEPYGHMEEVAFSYKKIKWTWEPNGIEAEDSWSVPK”: the protein production result is on record as “failed”.
“MLTTNASSKIFSKASTAELVGHTRKVHCLSWNPKGGLLGSGGVDCVARIWDVEKLQQKAELEGHTSSIEQLKWDPTANVFFVSASLDHKVLFWDLRARNSEPVASVETQGENINLAWSQDGVYCAVGDKDDNLSFIDVRKFDFFERFQFAEEVNEFKWSPSGPFFFMTLGKEVLVFRWPTMEQQLRLQVHADRCYCLEFDRSGRYFALGGADSIISLWETEYMLCTWTVDRLEYPIRTISFSHDGQFIAAGSEDSVIDISDILNGRQTYALGVKGATNVVAWHPSRHLLAYATEEEYSRDGVAIHLYGTISKDNI”: the protein production result is recorded as “failed”.
For “MAQFAVIGLGSFGATVATELTKLNHDVIGIDSVKRNVEDLSDQLTHAVIADASDEHVLEELNIQNCETVVVAIGEDIEASILCVLHLKNMGVPQIWVKAKTKAHHMILSHLHVDKIIHPEEDMGVRIAQALNYPMVSRYMALDNDHFIVKVEIPKHLNGVHLLGLINEMSDVKTILLKRGKDIIYEPDPTCPVQSKDILILEGHIDQLKKLSRRFLPHEKTKN” the value was “failed”; for “MKNKQSKSLLIKSMALTGLFTISACANEELADTLLTNTNIYGHNNATSLAIKDGKIVYIGDEQNAMNHVSNKTQVIDLKGGYLLPGFVDNHNHVFEAASEIGSDCLLDEDKDINGYIRSLRACKEELEEGEWLLGYGHELSQLMQDNDTSPLAILDEIFPNNPVIIMEQTSHSMWVNSLALAEAGITIHSKEPQGGKILKDKTTGKLLGILLDNAGDLLMEQAWKNQPNLAEANYQGLLNGLAQASKHGITTIGDGRLYWKRGWLETWLTAEKNQALTARVSLRPWVYPADEANEQLAFFKKIKSNDKQRLIQINQVKIYSDGIIINGTASTLDPYDWSYTPQIPHGLEYIPATKMAWWLSELNKIGYGAHIHAIGDAGVRNTLNAIETLRAQGATTAYSMTHLEMVSAQDIKRFAPLRVDADFQLGSDYIAEQDHDWAIPFIGKQRAHALLPINAILNTGANVTLSSDWNVNDINPLVGIANAVYLKNMGIADIHQAIAAYTINPAQALGLDDITGTLEVGKSADIVMLERDITQSTPKQIANTRVLMTWLEGEVVYDEQTE”, “failed”.
As to “MATSRLQLEGDDSVHLHITHANLKSFSADARFSPQMSVEAVKEKLWKKCGTSVNSMALELYDDSGSKVAVLSDDSRPLGFFSPFDGFRLHIIDLDPSSVTTGGWLEDTSLVEKYNISEEDYAKRTDSFRKFKEKRVSQNPVAAEAKTKENYMEDLCANIKVGDRCQVEPGEKRGMVKYVGRAESLGPGYWVGIQYDEPLGKHDGMVKGTRFFECPRLQGGMVRPDKVKVGDYPERDPFEEDEI”, the protein production entry is on record as “failed”.
For “MNLHQTVEHEAAAAFAAAGIAGSPVVLQPTKNAEHGDFQINGVMGAAKKAKQNPRELAQKVADALAGNAVIESAEVAGPGFINLRLRHEFLAQNIHAALNDARF” the value was “not failed”; for “MVKSIVILIETVTMKIPAVYSDGSFKTFNDSETTAQKLVDSGVVNTFAFGPTLVENGKVAVSENEEVGQDMADNPRTAIVVNEESDRSVHYIVIVSDGRTSESSGLTLYEMAELMKSYGVMTGYNLDVGDSSTMYSNGQVINKPTRKRKQNLRKGGERYRLHRLLKNLLASTFSPPILVLEHHHHHH”, “not failed”.
Under “MAARAWVVAVVGFFVMWLMFQVVGWVIGVIWGVWQQLDQATAGTMIEPPQDWKNMLNSLYSNMLGIWNYLPVVVLLSAVVYIIIESLRRRPEEYYV” stands “failed”; under “MKKPKFLSLQEDDTFEKMRQSRLQKNKRKRDSGLNVFEEVVKDLTYGYMKIGDGDEIYGKHRKKKRVSKAKELEMAMTLEALKKDQEKGDIVAKNHSWQAAISRAAGIKIHDDPKRLKKRIHKETKMREKNTEKWKERVDVQQKFRAEKQQKRSENVIDRIQQKKMRKIAKREKKLLRPGY”, “failed”.
For “MWQLLSRLNKNLVLTIPAMMAAGFVFGLVTETGFLKELIIPFTFLMVYPMMVTLKLKKVLEGGDGKAQLFTQFINFAVVPFVAFGLGRLFFADRPYMALGLLLAALVPTSGMTISWTGFARGNLEAAVKMTVVGLILGSIATPFYVQALMGAHVEVDMTGIMKQIAVIVFLPMAVGYATQRYLIAKHGQKGFQEQWAPRFPCLSTLGVLGIVFIAIALKAQAIAARPQDLLAILLPLAILYGINYSLSTVVGRLFLPRGDAIALAYGTVMRNLSIALAVAMNAFGKAGSDAALVIALAYIIQVQSAAWYVKFTGTLFGEAPAPSCPAPRRN” the value was “failed”.
